According to patent publication CN110404066A (QILU PHARMACEUTICAL CO LTD, dated 2019):

How the values were obtained:
PD-1抗原 [1] = biological target: T1, PD-1抗原 (UniProt Q15116 25-167, limits assumed); test: SPR (Biacore T200), antibody captured by anti-human Fc on CM5, PD-1 antigen as analyte, 1:1 model, second repeat
PD-1抗原 [2] = biological target: T1, PD-1抗原; test: SPR (Biacore T200), antibody captured by anti-human Fc on CM5, PD-1 antigen as analyte, 1:1 model, first repeat
PD-1抗原 [3] = biological target: T1, PD-1抗原; test: SPR (Biacore T200), antibody captured by anti-human Fc on CM5, PD-1 antigen as analyte, mean of two repeats

T1 sequence (Q15116 25-167 limits assumed): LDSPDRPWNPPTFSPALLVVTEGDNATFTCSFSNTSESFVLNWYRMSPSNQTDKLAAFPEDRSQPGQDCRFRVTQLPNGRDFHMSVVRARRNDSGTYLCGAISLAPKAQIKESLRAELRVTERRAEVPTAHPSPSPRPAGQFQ

B1: 抗人PD-1的单克隆抗体ZMR01 (antibody, V domains shown)
VH: QVQLVQSGAEVKKPGASVKVSCKASGYTFTNYWIHWVRQAPGQGLEWMGEIDPYDSYTNYNQKFKGRVTMTVDKSTSTVYMELSSLRSEDTAVYYCARPGFTYGGMDFWGQGTLVTVSS
VL: DIQMTQSPSSLSASVGDRVTITCKSSQSLFNSGNQKNYLAWYQQKPGKVPKLLIYGASTRDSGVPYRFSGSGSGTDFTLTISSLQPEDVATYYCQNDHYYPYTFGGGTKVEIK
B1 showed a Kd (PD-1抗原 [1]) of 1.82 nM, a Kd (PD-1抗原 [2]) of 1.91 nM and a Kd (PD-1抗原 [3]) of 1.87 nM.
